Data as given in the supplement of paper PMC10567573.

B1: TMEM106C (parent)
chain: SEQLVNFTGKAEMGGPFSYVYFFC

Variants of: B1
Experiment: protein stability index of a GFP-peptide fusion (GPS, HEK-293T) (PSI 1-6); higher = more stable
Settings: c terminus: a fixed tail appended
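Also: lentivirally expressed fusions sorted by FACS into six bins by GFP to DsRed ratio, PSI derived from sequencing read proportions per bin multiplied by bin number.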

In order of falling protein stability index:
1. SEQLVNFTGKPEMGGPFSYVYFFC [A11P]  4.32
2. SEQLVNFTGKAQMGGPFSYVYFFC [E12Q]  4.32
3. SEQLVNFTGKAKMGGPFSYVYFFC [E12K]  4.11
4. SEQLVNFTGKAEMGHPFSYVYFFC [G15H]  3.96
5. SEQLVNFTGKAEMGIPFSYVYFFC [G15I]  3.9
6. SEQLVNFTGKAEMIGPFSYVYFFC [G14I]  3.83
7. SEQLVNFTGKAEMGMPFSYVYFFC [G15M]  3.83
8. SEQLVNFTGKAEMYGPFSYVYFFC [G14Y]  3.75
9. SEQLVNFTGKAMMGGPFSYVYFFC [E12M]  3.74
10. SEQLVNFTGKAEMVGPFSYVYFFC [G14V]  3.73
11. SEQLVNFTGKKEMGGPFSYVYFFC [A11K]  3.7
12. SEQLVNFTGKAHMGGPFSYVYFFC [E12H]  3.66
13. SEQLVNFTGKAEMAGPFSYVYFFC [G14A]  3.63
14. SEQLVNFTGKFEMGGPFSYVYFFC [A11F]  3.61
15. SEQLVNFTGKAEMGEPFSYVYFFC [G15E]  3.6
16. SEQLVNFTGSAEMGGPFSYVYFFC [K10S]  3.56
17. SEQLVNFTGKTEMGGPFSYVYFFC [A11T]  3.55
18. SEQLVNFTGKAEIGGPFSYVYFFC [M13I]  3.54
19. SEQLVNFTGKARMGGPFSYVYFFC [E12R]  3.52
20. SEQLVNFTGKAEMPGPFSYVYFFC [G14P]  3.48
21. SEQLVNFTGTAEMGGPFSYVYFFC [K10T]  3.48
22. SEQLVNFTGKAEMDGPFSYVYFFC [G14D]  3.46
23. SEQLVNFTGKAWMGGPFSYVYFFC [E12W]  3.46
24. SEQLVNFTGKAEMWGPFSYVYFFC [G14W]  3.4
25. SEQLVNFTGKAEMSGPFSYVYFFC [G14S]  3.33
26. SEQLVNFTGKEEMGGPFSYVYFFC [A11E]  3.33
27. SEQLVNFTGKAEMFGPFSYVYFFC [G14F]  3.25
28. SEQLVNFTGKQEMGGPFSYVYFFC [A11Q]  3.25
29. SEQLVNFTGWAEMGGPFSYVYFFC [K10W]  3.18
30. SEQLVNFTGKAYMGGPFSYVYFFC [E12Y]  3.17
31. SEQLVNFTGKAEMCGPFSYVYFFC [G14C]  3.15
32. SEQLVNFTGKAEVGGPFSYVYFFC [M13V]  3.14
33. SEQLVNFTGKAEDGGPFSYVYFFC [M13D]  3.13
34. SEQLVNFTGKAEYGGPFSYVYFFC [M13Y]  3.13
35. SEQLVNFTGKAEMGFPFSYVYFFC [G15F]  3.12
36. SEQLVNFTGKAPMGGPFSYVYFFC [E12P]  3.12
37. SEQLVNFTGKAEMTGPFSYVYFFC [G14T]  3.09
38. SEQLVNFTGKVEMGGPFSYVYFFC [A11V]  3.08
39. SEQLVNFTGQAEMGGPFSYVYFFC [K10Q]  3.07
40. SEQLVNFTGVAEMGGPFSYVYFFC [K10V]  3.02
41. SEQLVNFTGKAEMLGPFSYVYFFC [G14L]  3
42. SEQLVNFTGRAEMGGPFSYVYFFC [K10R]  2.99
43. SEQLVNFTGKAIMGGPFSYVYFFC [E12I]  2.98
44. SEQLVNFTGKAGMGGPFSYVYFFC [E12G]  2.96
45. SEQLVNFTGKLEMGGPFSYVYFFC [A11L]  2.92
46. SEQLVNFTGKAEMGCPFSYVYFFC [G15C]  2.89
47. SEQLVNFTGKAEMHGPFSYVYFFC [G14H]  2.88
48. SEQLVNFTGKAEMEGPFSYVYFFC [G14E]  2.86
49. SEQLVNFTGKAEMGAPFSYVYFFC [G15A]  2.8
50. SEQLVNFTGKAEMMGPFSYVYFFC [G14M]  2.79
51. SEQLVNFTGKASMGGPFSYVYFFC [E12S]  2.79
52. SEQLVNFTGKAVMGGPFSYVYFFC [E12V]  2.79
53. SEQLVNFTGKAEGGGPFSYVYFFC [M13G]  2.77
54. SEQLVNFTGKWEMGGPFSYVYFFC [A11W]  2.75
55. SEQLVNFTGKAENGGPFSYVYFFC [M13N]  2.69
56. SEQLVNFTGKANMGGPFSYVYFFC [E12N]  2.69
57. SEQLVNFTGKAFMGGPFSYVYFFC [E12F]  2.67
58. SEQLVNFTGKACMGGPFSYVYFFC [E12C]  2.67
59. SEQLVNFTGKNEMGGPFSYVYFFC [A11N]  2.66
60. SEQLVNFTGKDEMGGPFSYVYFFC [A11D]  2.64
61. SEQLVNFTGKAEHGGPFSYVYFFC [M13H]  2.64
62. SEQLVNFTGKAEMGKPFSYVYFFC [G15K]  2.63
63. SEQLVNFTGKMEMGGPFSYVYFFC [A11M]  2.61
64. SEQLVNFTGKAEMKGPFSYVYFFC [G14K]  2.59
65. SEQLVNFTGKAERGGPFSYVYFFC [M13R]  2.54
66. SEQLVNFTGKAEMQGPFSYVYFFC [G14Q]  2.52
67. SEQLVNFTGKAEPGGPFSYVYFFC [M13P]  2.52
68. SEQLVNFTGKAECGGPFSYVYFFC [M13C]  2.52
69. SEQLVNFTGKAEMGLPFSYVYFFC [G15L]  2.52
70. SEQLVNFTGKATMGGPFSYVYFFC [E12T]  2.51
71. SEQLVNFTGYAEMGGPFSYVYFFC [K10Y]  2.5
72. SEQLVNFTGKYEMGGPFSYVYFFC [A11Y]  2.47
73. SEQLVNFTGKADMGGPFSYVYFFC [E12D]  2.46
74. SEQLVNFTGKAEMRGPFSYVYFFC [G14R]  2.42
75. SEQLVNFTGKGEMGGPFSYVYFFC [A11G]  2.41
76. SEQLVNFTGKHEMGGPFSYVYFFC [A11H]  2.39
77. SEQLVNFTGKAEKGGPFSYVYFFC [M13K]  2.34
78. SEQLVNFTGKAEMGDPFSYVYFFC [G15D]  2.33
79. SEQLVNFTGKAETGGPFSYVYFFC [M13T]  2.27
80. SEQLVNFTGKAEMNGPFSYVYFFC [G14N]  2.23
81. SEQLVNFTGKAEMGNPFSYVYFFC [G15N]  2.23
82. SEQLVNFTGKAELGGPFSYVYFFC [M13L]  2.2
83. SEQLVNFTGKSEMGGPFSYVYFFC [A11S]  2.17
84. SEQLVNFTGKIEMGGPFSYVYFFC [A11I]  2.16
85. SEQLVNFTGKAESGGPFSYVYFFC [M13S]  2.16
86. SEQLVNFTGKAEWGGPFSYVYFFC [M13W]  2.15
87. SEQLVNFTGKAEFGGPFSYVYFFC [M13F]  2.15
88. SEQLVNFTGKREMGGPFSYVYFFC [A11R]  2.14
89. SEQLVNFTGKAEAGGPFSYVYFFC [M13A]  2.1
90. SEQLVNFTGKALMGGPFSYVYFFC [E12L]  2.07
91. SEQLVNFTGKAEQGGPFSYVYFFC [M13Q]  2.02
92. SEQLVNFTGKCEMGGPFSYVYFFC [A11C]  2
93. SEQLVNFTGKAEEGGPFSYVYFFC [M13E]  1.54
94. SEQLVNFTGKAAMGGPFSYVYFFC [E12A]  1.37
